Five molecules from US20110143963A1 can be followed below.

Substitutions are numbered along the chain they refer to. A value given as a limit tells only on which side of the number the result lay.

For assay [1], the target named is SUMO-ARVCF fusion protein (yeast). The experiment in a line: SPR, equilibrium mode, target peptide fused to yeast SUMO.
Assay [2] deals with SH2 domain of human Grb2 (human), P62993. The experiment in a line: panel E, competition phage ELISA: wtSH2 (Grb2-SH2) phages incubated with free pY1208 peptide (0 to about 2200 nM), phages not bound to the free peptide captured and detected.
Chain of SH2 domain of human Grb2 (human), P62993 (P62993 56-153 limits assumed): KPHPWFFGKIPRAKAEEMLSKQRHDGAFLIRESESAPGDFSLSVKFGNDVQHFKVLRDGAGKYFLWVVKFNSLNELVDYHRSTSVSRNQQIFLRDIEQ
The target of assay [3] is ARVCF peptide PQPVDSWV-COOH (eight-residue motif corresponding to the ARVCF C-terminus). The experiment in a line: SPR (BIAcore). (In general: SPR reads the build-up and loss of mass on a sensor chip optically.)
For assay [4] the target is unchanged. The experiment in a line: SPR, ratio of Kd.
For assay [5] the target is unchanged. The experiment in a line: IC50 for the ARVCF peptide; method not stated with the table.
The target is the same in assay [6]. The experiment in a line: SPR.
For assay [7], the target named is δ-catenin peptide PASPDSWV-COOH. The experiment in a line: SPR (BIAcore); SPR, soluble ePDZ-b; only a lower bound on Kd (very weak binding); same conditions as the other rows.
The target is the same in assay [8]. The experiment in a line: SPR, ratio of Kd; ratio Kd(δ-catenin)/Kd(ARVCF) derived from the same SPR values, not a separate measurement.
For assay [9], the target named is ARVCF peptide with Ala substitution at position -4. The experiment in a line: SPR, Ala scan of the ARVCF peptide.
Assay [10] has as its target δ-catenin peptide PASPDSWV-COOH. The experiment in a line: SPR, ratio of Kd.
Assay [11] has the same target. The experiment in a line: SPR (BIAcore), column δ-Catenin; number at the left of panel F (on rate per paragraph 112), unit from the column head of Table 4.
Assay [12] has the same target. The experiment in a line: SPR (BIAcore).
For assay [13] the target is unchanged. The experiment in a line: SPR.
Assay [14] shares this target. The experiment in a line: SPR (BIAcore), column δ-Catenin; number at the right of panel F (off rate per paragraph 112), unit from the column head of Table 4.

B1: circularly permutated PDZ domain (designed binder)
chain: PELGFSISGGVGGRGNPFRPDDDGIFVTRVQPEGPASKLLQPGDKIIQANGYSFINIEHGQAVSLLKTFQNTVELIIVREVGNGAKQEIRVRVEKD
Consider B1, for which, in assay [1], the Kd is 11000 nM. That is a double-digit micromolar value.
In assay [2], NEPLYLNTFANTC (modifications not checked) [peptide corresponding to residues 1204-1216 of ErbB4 receptor (pY1208)] had an IC50 of 120 nM. That is a sub-micromolar value.

B2: enhanced PDZ-b (designed binder)
chain: MKHHHHHHHHHHSSDYKDDDDKGENLYFQGSPELGFSISGGVGGRGNPFRPDDDGIFVTRVQPEGPASKLLQPGDKIIQANGYSFINIEHGQAVSLLKTFQNTVELIIVREVGNGAKQEIRVRVEKDGGSGGVSSVPTNLEVVAATPTSLLISWDAYYDSHVSYYRITYGETGGNSPVQEFTVPGSKSTATISGLKPGVDYTITVYAHYNYHYYSSPISINYRT
Regarding B2, the Kd in assay [3] is 56 nM. Moreover, the Affinity Enhancement (Kd of cpPDZFN for ARVCF / Kd of the clamp) in [4] is 520 fold. The half-maximal inhibitory concentration (IC50) in [5] was found to be 59 nM. In assay [6], this molecule came in with a Kd of 56 nM, a dissociation rate constant (koff) of 0.011 s⁻¹ and a kon of 190000 M⁻¹ s⁻¹. Also, the Kd in assay [7] is greater than 10000 nM. Moreover, the Specificity Index (Kd for δ-catenin / Kd for ARVCF) in assay [8] is greater than 178 fold.

B3: ePDZ-b1 (designed binder)
chain: B2 chain with Y158R, D159E, S160L, H161P
With B3, in assay [9], the fold reduction in affinity against the wild-type ARVCF peptide was greater than 200 fold. The Specificity Index (Kd for δ-catenin / Kd for ARVCF) in [10] was greater than 2000 fold. The Affinity Enhancement (Kd of cpPDZFN for ARVCF / Kd of the clamp) in [4] worked out at 4960 fold. In assay [6], this molecule gave an equilibrium dissociation constant (Kd) of 5 nM, an off-rate (koff) of less than 0.00037 s⁻¹ and a kon of 73000 M⁻¹ s⁻¹.

B4: enhanced PDZ-a (designed binder)
chain: MKHHHHHHHHHHSSDYKDDDDKGENLYFQGSPELGFSISGGVGGRGNPFRPDDDGIFVTRVQPEGPASKLLQPGDKIIQANGYSFINIEHGQAVSLLKTFQNTVELIIVREVGNGAKQEIRVRVEKDGGSGGVSSVPTNLEVVAATPTSLLISWDASYYGVSYYRITYGETGGNSPVQEFTVPYSSSTATISGLKPGVDYTITVYAYSDYYGSHHYSPISINYRT
For B4, the on-rate constant (kon) in assay [11] turned out to be 250000 M⁻¹ s⁻¹; in assay [6], 290000 M⁻¹ s⁻¹. The Kd in [12] is 430 nM; in assay [3], 56 nM; in assay [13] it was 429 nM; in assay [6], 56 nM. For the same molecule, the Specificity Index (Kd for δ-catenin / Kd for ARVCF) in assay [10] was found to be 8 fold. In assay [4], the Affinity Enhancement (Kd of cpPDZFN for ARVCF / Kd of the clamp) came out at 520 fold. Besides, the IC50 in assay [5] worked out at 40 nM. Besides, the koff in assay [6] came to 0.015 s⁻¹; in assay [14], 0.11 s⁻¹.

The term Kd denotes the concentration at which binding is half-saturated. Higher therefore signals a looser complex. The term IC50 denotes the concentration at which inhibition is half-maximal. Low values mean greater potency, high ones weaker potency. The koff is a measure of how fast the partners let go of each other. A higher koff goes with fast dissociation. As a reminder, the kon is a measure of how fast the partners come together. High values mean fast association, low ones slow association.
